Laboratory results taken from PMC5650471.

Target: wild-type human ADORA2A adenosine A2A receptor (construct terminated at residue 316, N154Q, C-terminal 8x His and Protein C tags) (human) (UniProt P29274)
UniProt P29274, sequence (P29274 1-316 N154Q): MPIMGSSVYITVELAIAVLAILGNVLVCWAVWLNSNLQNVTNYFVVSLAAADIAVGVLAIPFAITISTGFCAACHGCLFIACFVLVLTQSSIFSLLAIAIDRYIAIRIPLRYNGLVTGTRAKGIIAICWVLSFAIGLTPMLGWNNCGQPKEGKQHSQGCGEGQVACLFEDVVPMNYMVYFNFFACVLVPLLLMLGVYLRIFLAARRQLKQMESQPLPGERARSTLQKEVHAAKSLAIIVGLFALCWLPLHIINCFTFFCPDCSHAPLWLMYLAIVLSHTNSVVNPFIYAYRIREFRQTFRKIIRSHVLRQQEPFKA

[35S]GTPγS binding to perdeuterated purified A2AR reconstituted with purified Gs heterotrimer in phospholipid vesicles; reduction of basal activity by inverse agonist ZM241385: 50% | [35S]GTPγS binding to perdeuterated purified A2AR reconstituted with purified Gs heterotrimer in phospholipid vesicles; stimulation by saturating full agonist NECA: 8 fold
Substance: Gs heterotrimer (complex)
